Reference: the DeepSol protein solubility set

test: soluble on expression in E. coli; label from the status in PepcDB or PDB records

Sequence	soluble on expression in E. coli
MSQAELFTISDLAREFDVTLRTIRFYEEQGLIEPQRDGRQRLFTRRDRGRLKLILRGKRIGLSLAEIREIIDMYQLARDEASQSQKLLDLLLARRRQLEAQRRDIDAVLDEIATLENHCRDVIDSQSSVA	not soluble
GSKEKLKEIKLLVCNIDGCLTNGHIYVSGDQKEIISYDVKDAIGISLLKKSGIEVRLISERACSKQTLSALKLDCKTEVSVSDKLATVDEWRKEMGLCWKEVAYLGNEVSDEECLKRVGLSAVPADACSGAQKAVGYICKCSGGRGAIREFAEHIFLLIEKVNNSCQK	soluble
MPPKVTSELLRQLRQAMRNSEYVTEPIQAYIIPSGDAHQSEYIAPCDCRRAFVSGFDGSAGTAIITEEHAAMWTDGRYFLQAAKQMDSNWTLMKMGLKDTPTQEDWLVSVLPEGSRVGVDPLIIPTDYWKKMAKVLRSAGHHLIPVKENLVDKIWTDRPERPCKPLLTLGLDYTGISWKDKVADLRLKMAERNVMWFVVTALDEIAWLFNLRGSDVEHNPVFFSYAIIGLETIMLFIDGDRIDAPSVKEHLLLDLGLEAEYRIQVHPYKSILSELKALCADLSPREKVWVSDKASYAVSETIPKDHRCCMPYTPICIAKAVKNSAESEGMRRAHIKDAVALCELFNWLEKEVPKGGVTEISAADKAEEFRRQQADFVDLSFPTISSTGPTGAIIHYAPVPETNRTLSLDEVYLIDSGAQYKDGTTDVTRTMHFETPTAYEKECFTYVLKGHIAVSAAVFPTGTKGHLLDSFARSALWDSGLDYLHGTGHGVGSFLNVHEGPCGISYKTFSDEPLEAGMIVTDEPGYYEDGAFGIRIENVVLVVPVKTKYNFNNRGSLTLEPLTLVPIQTKMIDVDSLTDKECDWLNNYHLTCRDVIGKELQKQGRQEALEWLIRETQPISKQH	soluble
MGSDKIHHHHHHMIMEELAKKIEEEILNHVREPQIPDREVNLLDFGARGDGRTDCSESFKRAIEELSKQGGGRLIVPEGVFLTGPIHLKSNIELHVKGTIKFIPDPERYLPVVLTRFEGIELYNYSPLVYALDCENVAITGSGVLDGSADNEHWWPWKGKKDFGWKEGLPNQQEDVKKLKEMAERGTPVEERVFGKGHYLRPSFVQFYRCRNVLVEGVKIINSPMWCVHPVLSENVIIRNIEISSTGPNNDGIDPESCKYMLIEKCRFDTGDDSVVIKSGRDADGRRIGVPSEYILVRDNLVISQASHGGLVIGSEMSGGVRNVVARNNVYMNVERALRLKTNSRRGGYMENIFFIDNVAVNVSEEVIRINLRYDNEEGEYLPVVRSVFVKNLKATGGKYAVRIEGLENDYVKDILISDTIIEGAKISVLLEFGQLGMENVIMNGSRFEKLYIEGKALLK	not soluble
MSLQMERRGISALPLHYGHPPEYLFKRAVKLSGIMAEIIVDTYGQGELIRRLADPFWFHSLSLVTGFDWNSSGTTVFTLSALKEYLSTRDLGVKVCGGKASAMADMRADLLSSVETGILKEDDKEYVYENARRIAKIDNSLLQDGYDLYMQFVVVSDRGRHAVIQQGMNSEDRMARRYHWLIGNERVDVEGRYGLSADKTSLNVLDLSATESRDNRSAIVASVREGEVWRFRSGAQSTLDNFSLPFLDLSGRVNWKKLRDLYEYGVDDFEKIYMEKGIGKSTLRALSYIAEVIYGPKASFRDPVKFSFAVGGKDGIPKPVNTYDYDRAIEFFSDLIREKDLNVREKETIARSLAHLSQMKTNFYSEGHHHHHH	soluble
PDVKFLEGRYCSVEHIDARKHLNDIIDFYWKNAVPSDWTYMFDQPFETAEAVQERLQDYEKSENPYFFAIRDKETDKVLGTFSLMRIDPKNRVLEMGRVIYAPALQKTSAATEAQYLVMNYVFENLGYRRYEWKCDHLNQSSGNAAKRLGFTYEGTFRKHVVYKGRTRDTDWFSVIDQDWPKLKKRFENWLSPKNF	not soluble
MTPEQAHARARATGPLPLGAGEPAPRGMVRLAHGDGTGLALQVWPDGATPSLLEEYQVAPVNVERSGETRRVLAAALKCCWTDLGADPWPGAPAPVEDVLSAYRALIGRGDDLMRNWAIGALRRLHDSAWLEVEDGVVRLGPRCACWPSESHAQLRELMRRLPTGDEGLTGLEVLPADGRAPAETAASVAPPEDVDEDLLGPFDERRRAEIVAAFIAVEHAAEPVHEARLPALRDPVLRRALAEMLQRRGRVLIQDREAWTSGYAPEVTAVTGTTVGEAERAVLVLVLIHSVAIPRADGLLPADSWLSPFPAQVEELRRHTRLPIGELEAALRTLRHAGLVTQVKAGEEAGGYTPGPQFHRLTPQARRGLQEELILAAGPHTPLAAAVRANRR	not soluble
MKIGFFTDTYFPQVSGVATSIKTLKDELEKHGHEVYIFTTTDPNATDFEEDVIRMPSVPFVSFKDRRVVVRGMWYAYLIAKELELDLIHTHTEFGAGILGKMVGKKMKIPVIHTYHTMYEDYLHYIAKGKVVRPSHVKFFSRVFTNHTTGVVCPSERVIEKLRDYGVTAPMRIIPTGIEIDKFLRPDITEEMIAGMRQQLGIEEQQIMLLSLSRISYEKNIQAIIQGLPQVIEKLPQTRLVIVGNGPYLEDLKELAEELEVSEYVQFTGEVPNEEVAIYYKAADYFVSASTSETQGLTYTEAMAAGVQCVAEGNAYLNNLFDHESLGKTFKTDSDFATTLIDYIQANIKMDQTILDEKLFEISSTNFGNKMIEFYQDTLIYFDQLQMEKENADSIKKIKVKFTSLRKLEHHHHHH	soluble
MLGPVLRLVVKAGKERKLRNFYPNLYRDEIAAPPEGVGVAEAVDAEGHFLAVGYYDPRSRVPFRAFRFDPGPLNRAFFQGRFARALRRRQGLGESHRLVHGEADGLPGLVVDRFGEVLVLQVRSRGMEALREVWLPALLEVVAPKGVYERSDVEARRQEGLPERVGVVYGEVPEVLEVEEDGLRFPIPLALAQKTGYYLDQRENRRLFEAMVRPGERVLDVYSYVGGFALRAARKGAYALAVDKDLEALGVLDQAALRLGLRVDIRHGEALPTLRGLEGPFHHVLLDPPTLVKRPEELPAMKRHLVDLVREALRLLAEEGFLWLSSCSYHLRLEDLLEVARRAAADLGRRLRVHRVTYQPEDHPWSLHIPESLYLKTLVLQDDPL	soluble
MSLVDLVTEAKSSGEGVTSPYSRTEHCENIHEYRCDTRVGVIGIDVSKEHLVTSKGRVRKFTNNEKGYEEILTMKPNIIVIEPTGVYSTRPCQYFKERGVKVLLVSLAMERKGRKGKENRFLRRRKTEGHHHHHH	not soluble
MSLQSYADALSAKGYRSFGFDTDMEMDMDMGCTTMRRIEKRKGGDLADSPVDEKAEADVEVTNEISAPYEVPQFPIEQIEKKLQIQRHLNEKQATGPRPVATAAVLATNRESSSSTEGRESAVTMERNDADINFQRVSISGEDTSGVPLEDLERASTLLIEALRLRSHYMAMSDQSFPSTTARFLKTVKLKDRINNLPVKEVSESADVHLRHSPMKITNPWNVEFPNDEDFKIKPLNGVFHIYENDDESSEIKYEYPDMSQFVNDMQVMCNMIADGPLKSFCYRRLCYLSSKYQMHVLLNELRELAAQKAVPHRDFYNTRKVDTHIHAASCMNQKHLLRFIKKTLKNNANEVVTVTNGQQMTLAQVFQSMNLTTYDLTVDMLDVHADRNTFHRFDKFNSKYNPIGESRLREVFLKTDNYLNGKYFAQIIKEVAFDLEESKYQNAELRLSIYGKSPDEWYKLAKWAIDNDVYSSNIRWLIQIPRLFDIFKSNKMMKSFQEILNNIFLPLFEATARPSKHPELHRFLQYVIGFDSVDDESKPENPLFDNDVPRPEEWTYEENPPYAYYIYYMYANMTVLNKFRQSRNMNTFVLRPHCGEAGPVQHLVCGFLMAENISHGLLLRKVPVLQYLYYLTQIGIAMSPLSNNSLFLNYHRNPLPEYLARGLIISLSTDDPLQFHFTKEPLMEEYSIAAQVWKLSSCDMCELARNSVMMSGFPHAIKQQWLGPIYYEDGIMGNDITRTNVPEIRVAYRYETLLDELSNIFKVNQTCSIADMNATEGHHHHHH	soluble
GSKAEKTLGDFAAEYAKSNRSTCKGCMEKIEKGQVRLSKKMVDPEKPQLGMIDRWYHPGCFVKNREELGFRPEYSASQLKGFSLLATEDKEALKKQLPGVKSEGKRKGDEVDGVDEVAKKK	soluble
MSLGFHEVRFPASLSFGSVGGPERHTDVVTLANGHEERNTPWAHSRRRYDAGVAMRGLDDIETLIAFFEARQAQLHGFRWKDWSDYKSGPALAEPAYHDQIIAIGDDVTASFPLIKAYRSGEQIYRRPITKPVAGTVRIGLSGDEQQEGVHYEVDTTTGIITFAHPPNEGLEITAGFEFDVPVRFDTDRIQTSVASFQAGDMPNVPVVEIRVEGHHHHHH	soluble
MILTFNPGKLERQEFFKELINYLWIHDDVTLRKIKSHFTDYSKIDRLLEEYINHGYILRQNKRYSLNLPFLSSLDGLVLDDLVFIDSDSQIYQLLQKRKFVTNLDNPTNHLVFVEETDFERNTLTLSNYFYKLTNGYPLSREQKKLYQLLGDVNSEYALKYMSSFILKFLRKDSVKQKRTVIFIQALELLGYISLNQDTTYRLNAKLDVEALKIYLT	not soluble
MAHHHHHHMTDIAHGSRYDRDAAISTAAEQVAAGQYAENKPRAIMFVNKRPVEIIPQEENVLEVLEREGITVPKFCYHPILSVAGNCRMCMVQVDGTQNIVVACSTVALPGMSIITDSRLVRDAREGNVELILINHPNDCPICEQATNCDLQNVSMNYGTDIPRYREDKKAVEDFYFDPQTRVVLNRCIHCTRCIRFLNEHAQDFNLGQIGRGGLSEISTFLDELEVKTDNNMPVSQLCPVGKLYMGDADENNDIVRELEAAGATA	not soluble
MDKELNPSIGDYTGRTVDTLQNAVYIRLMTPLGSWWADKTLGSLLHLLQREKDLQRVSLLAEQYADEALQPIVKSGRADKITVRAEQPHDGRLILHIRMDTAAGGFDYRHEVPVI	not soluble
MGHHHHHHSHMETLSNASGTFAIRLLKILCQDNPSHNVFCSPVSISSALAMVLLGAKGNTATQMAQALSLNTEEDIHRAFQSLLTEVNKAGTQYLLRTANRLFGEKTCQFLSTFKESCLQFYHAELKELSFIRAAEESRKHINTWVSKKTEGKIEELLPGSSIDAETRLVLVNAIYFKGKWNEPFDETYTREMPFKINQEEQRPVQMMYQEATFKLAHVGEVRAQLLELPYARKELSLLVLLPDDGVELSTVEKSLTFEKLTAWTKPDCMKSTEVEVLLPKFKLQEDYDMESVLRHLGIVDAFQQGKADLSAMSAERDLCLSKFVHKSFVEVNEEGTEAAAASSCFVVAECCMESGPRFCADHPFLFFIRHNRANSILFCGRFSSP	not soluble
MYNIGDKIVYPMHGAGVIESIEEREILGKKQSYYVVKIPIGEMKVLIPIKNVDGIGIREVISEEDADKVFLILKNKALPSNTNWNKRYRENMSKIKSGNIFEVADVVRCLMLRDKLKGLSTGEKKMLNSAKQILISELVLAKNMNPMEIEGMIDKYIS	soluble
MSSAQRVVITPGEPAGSGPDLVVQLAQRAWPIELVVCADGALLTERAAMLGLPLSLLPYSPDVPAAPQPAGTLTLLPVSLRAPAISGQLTVENGPYVVETLARACDGCLNGEFAALITGPVHKGVINDAGISFTGHTEFFEERSQAKKVVMMLATEELRVALATTHLPLRAIADAITPALLHEVIAILHHDLRTKFGIAEPRILVCGLNPHAGEGGHMGTEEIDTIIPVLDELRAQGMKLNGPLPADTLFQPKYLDNADAVLAMYHDQGLPVLKYQGFGRGVNITLGLPFIRTSVDHGTALELAGRGKADVGSFITALNLAIKMIVNTQ	soluble
MIQKTISETSPPPMFSDEEILTEDEIEEYLDNLKSKLPSFVIILLKNNLRGKRVTKKQLDKIVERITEVLSKGRRDDKTEELNKKLQTLEQKLDAIMKLTTMAVSTKTSEEIEKIKTNEKIEIENAPIKIKSEEKPEKPVEIEVSKKKETMDTGKKTETEEKVKEIEVPKPVEKTHEKVEETKTKGEIKKEVKKEVKLKKYELPKESPMGGSFMTPIEEEKEYRLNDIPEDAVSMTLVFKWLEFLISRGGMTYLPDILDYYNKIGWISNRVILKLLRFAKNMKITFDEEELRPRDKLSPSDHIVSLLYIEKLAGRPIDSEILEMLEIEIRRIKKWAIELQSI	not soluble
